Experimental data as given in the supplement of paper PMC10567573.

B1: TRIM43 (parent)
chain: YQEIFQQLQRSWVKMDQKSKHLKE

Variants of: B1
Assay: protein stability index of a GFP-peptide fusion (GPS, HEK-293T) (PSI 1-6); higher = more stable
Settings: c terminus: a fixed tail appended
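Note: lentivirally expressed fusions sorted by FACS into six bins by GFP to DsRed ratio, PSI derived from sequencing read proportions per bin multiplied by bin number.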

| Variant | protein stability index |
| --- | --- |
| YQEIFQQLQRSWHKMDQKSKHLKE [V13H] | 2.48 |
| YQEIFQQLQRSWIKMDQKSKHLKE [V13I] | 2.14 |
| YQEIFQQLQRSWKKMDQKSKHLKE [V13K] | 2.3 |
| YQEIFQQLQRSWLKMDQKSKHLKE [V13L] | 1.92 |
| YQEIFQQLQRSWMKMDQKSKHLKE [V13M] | 1.9 |
| YQEIFQQLQRSWNKMDQKSKHLKE [V13N] | 2.22 |
| YQEIFQQLQRSWPKMDQKSKHLKE [V13P] | 2.62 |
| YQEIFQQLQRSWQKMDQKSKHLKE [V13Q] | 2.2 |
| YQEIFQQLQRSWRKMDQKSKHLKE [V13R] | 1.53 |
| YQEIFQQLQRSWSKMDQKSKHLKE [V13S] | 2.38 |
| YQEIFQQLQRSWTKMDQKSKHLKE [V13T] | 2.08 |
| YQEIFQQLQRSWWKMDQKSKHLKE [V13W] | 1.16 |
| YQEIFQQLQRSWYKMDQKSKHLKE [V13Y] | 2.21 |
| YQEIFQQLQRSWVAMDQKSKHLKE [K14A] | 2.1 |
| YQEIFQQLQRSWVCMDQKSKHLKE [K14C] | 1.97 |
| YQEIFQQLQRSWVDMDQKSKHLKE [K14D] | 2.77 |
| YQEIFQQLQRSWVEMDQKSKHLKE [K14E] | 2.92 |
| YQEIFQQLQRSWVFMDQKSKHLKE [K14F] | 2.35 |
| YQEIFQQLQRSWVGMDQKSKHLKE [K14G] | 2.6 |
| YQEIFQQLQRSWVHMDQKSKHLKE [K14H] | 2.04 |
| YQEIFQQLQRSWVIMDQKSKHLKE [K14I] | 1.86 |
| YQEIFQQLQRSWVLMDQKSKHLKE [K14L] | 2.44 |
| YQEIFQQLQRSWVMMDQKSKHLKE [K14M] | 2.37 |
| YQEIFQQLQRSWVNMDQKSKHLKE [K14N] | 2.99 |

| Variant | protein stability index |
| --- | --- |
| YQEIFQQLQRSWVPMDQKSKHLKE [K14P] | 2.19 |
| YQEIFQQLQRSWVQMDQKSKHLKE [K14Q] | 2.36 |
| YQEIFQQLQRSWVRMDQKSKHLKE [K14R] | 1.94 |
| YQEIFQQLQRSWVSMDQKSKHLKE [K14S] | 2.1 |
| YQEIFQQLQRSWVTMDQKSKHLKE [K14T] | 2.25 |
| YQEIFQQLQRSWVVMDQKSKHLKE [K14V] | 2.18 |
| YQEIFQQLQRSWVWMDQKSKHLKE [K14W] | 2.61 |
| YQEIFQQLQRSWVYMDQKSKHLKE [K14Y] | 2.2 |
| YQEIFQQLQRSWVKADQKSKHLKE [M15A] | 2.37 |
| YQEIFQQLQRSWVKCDQKSKHLKE [M15C] | 2.32 |
| YQEIFQQLQRSWVKDDQKSKHLKE [M15D] | 2.54 |
| YQEIFQQLQRSWVKEDQKSKHLKE [M15E] | 2.87 |
| YQEIFQQLQRSWVKFDQKSKHLKE [M15F] | 1.99 |
| YQEIFQQLQRSWVKGDQKSKHLKE [M15G] | 2.35 |
| YQEIFQQLQRSWVKHDQKSKHLKE [M15H] | 2.29 |
| YQEIFQQLQRSWVKIDQKSKHLKE [M15I] | 1.62 |
| YQEIFQQLQRSWVKKDQKSKHLKE [M15K] | 2.61 |
| YQEIFQQLQRSWVKLDQKSKHLKE [M15L] | 2 |
| YQEIFQQLQRSWVKNDQKSKHLKE [M15N] | 2.59 |
| YQEIFQQLQRSWVKPDQKSKHLKE [M15P] | 3.15 |
| YQEIFQQLQRSWVKQDQKSKHLKE [M15Q] | 2.3 |
| YQEIFQQLQRSWVKRDQKSKHLKE [M15R] | 2.5 |
| YQEIFQQLQRSWVKSDQKSKHLKE [M15S] | 2.46 |
| YQEIFQQLQRSWVKTDQKSKHLKE [M15T] | 2.53 |

| Variant | protein stability index |
| --- | --- |
| YQEIFQQLQRSWVKVDQKSKHLKE [M15V] | 2.13 |
| YQEIFQQLQRSWVKWDQKSKHLKE [M15W] | 1.48 |
| YQEIFQQLQRSWVKYDQKSKHLKE [M15Y] | 2.05 |
| YQEIFQQLQRSWVKMAQKSKHLKE [D16A] | 3.13 |
| YQEIFQQLQRSWVKMEQKSKHLKE [D16E] | 2.13 |
| YQEIFQQLQRSWVKMFQKSKHLKE [D16F] | 3.17 |
| YQEIFQQLQRSWVKMGQKSKHLKE [D16G] | 1.76 |
| YQEIFQQLQRSWVKMHQKSKHLKE [D16H] | 2.73 |
| YQEIFQQLQRSWVKMIQKSKHLKE [D16I] | 2.51 |
| YQEIFQQLQRSWVKMKQKSKHLKE [D16K] | 2.35 |
| YQEIFQQLQRSWVKMLQKSKHLKE [D16L] | 3.47 |
| YQEIFQQLQRSWVKMNQKSKHLKE [D16N] | 3.48 |
| YQEIFQQLQRSWVKMPQKSKHLKE [D16P] | 2.12 |
| YQEIFQQLQRSWVKMQQKSKHLKE [D16Q] | 2.52 |
| YQEIFQQLQRSWVKMRQKSKHLKE [D16R] | 2.2 |
| YQEIFQQLQRSWVKMTQKSKHLKE [D16T] | 2.09 |
| YQEIFQQLQRSWVKMVQKSKHLKE [D16V] | 1.69 |
| YQEIFQQLQRSWVKMWQKSKHLKE [D16W] | 2.96 |
| YQEIFQQLQRSWVKMDAKSKHLKE [Q17A] | 2.1 |
| YQEIFQQLQRSWVKMDCKSKHLKE [Q17C] | 2.05 |
| YQEIFQQLQRSWVKMDDKSKHLKE [Q17D] | 2.01 |
| YQEIFQQLQRSWVKMDEKSKHLKE [Q17E] | 1.98 |
| YQEIFQQLQRSWVKMDFKSKHLKE [Q17F] | 2.68 |
| YQEIFQQLQRSWVKMDGKSKHLKE [Q17G] | 1.96 |

| Variant | protein stability index |
| --- | --- |
| YQEIFQQLQRSWVKMDHKSKHLKE [Q17H] | 2.12 |
| YQEIFQQLQRSWVKMDIKSKHLKE [Q17I] | 1.73 |
| YQEIFQQLQRSWVKMDKKSKHLKE [Q17K] | 2.1 |
| YQEIFQQLQRSWVKMDLKSKHLKE [Q17L] | 1.92 |
| YQEIFQQLQRSWVKMDMKSKHLKE [Q17M] | 1.73 |
| YQEIFQQLQRSWVKMDNKSKHLKE [Q17N] | 2.89 |
| YQEIFQQLQRSWVKMDPKSKHLKE [Q17P] | 2.21 |
| YQEIFQQLQRSWVKMDRKSKHLKE [Q17R] | 2.19 |
| YQEIFQQLQRSWVKMDSKSKHLKE [Q17S] | 2.29 |
| YQEIFQQLQRSWVKMDTKSKHLKE [Q17T] | 2.62 |
| YQEIFQQLQRSWVKMDVKSKHLKE [Q17V] | 2.17 |
| YQEIFQQLQRSWVKMDWKSKHLKE [Q17W] | 1.72 |
| YQEIFQQLQRSWVKMDYKSKHLKE [Q17Y] | 1.72 |
| YQEIFQQLQRSWVKMDQASKHLKE [K18A] | 2.4 |
| YQEIFQQLQRSWVKMDQCSKHLKE [K18C] | 1.94 |
| YQEIFQQLQRSWVKMDQDSKHLKE [K18D] | 2.87 |
| YQEIFQQLQRSWVKMDQESKHLKE [K18E] | 2.46 |
| YQEIFQQLQRSWVKMDQFSKHLKE [K18F] | 1.44 |
| YQEIFQQLQRSWVKMDQGSKHLKE [K18G] | 2.4 |
| YQEIFQQLQRSWVKMDQHSKHLKE [K18H] | 2.04 |
| YQEIFQQLQRSWVKMDQISKHLKE [K18I] | 1.37 |
| YQEIFQQLQRSWVKMDQLSKHLKE [K18L] | 2.31 |
